From patent US20210032299A1 (Eli Lilly, published 2021)
Starred links: 1 amine or outer side, 2 acyl side, 3 side chain; linkers in the order of their positions; H or OH if unused. Non-standard residues stand in square brackets, D forms with d. Groups on a side chain read outwards from the residue. No end group written: not given here. *: point of attachment. C20 diacid = O=C(O)CCCCCCCCCCCCCCCCCCC(=O)*; γGlu = O=C(O)[C@H](CCC(=O)[*:2])N[*:1]; 4Pal = N[C@@H](Cc1ccncc1)C(=O)O; αMeL = CC(C)C[C@](C)(N)C(=O)O; Orn = NCCC[C@H](N)C(=O)O; AEEA = NCCOCCOCC(=O)O; Aib = CC(C)(N)C(=O)O

Key:
[1] = molecular target: T1, human glucose-dependent insulinotropic polypeptide (GIP) receptor (human, UniProt P48546 22-466); assay: SPA, displacement of [125I]-GIP from hGIPR membranes, 0.1% bacitracin
T1 construct: whole, on cells; Assayed as crude membranes of stably transfected CHO cells; also called hGIPR; human GIP receptor
T1 sequence (looked up): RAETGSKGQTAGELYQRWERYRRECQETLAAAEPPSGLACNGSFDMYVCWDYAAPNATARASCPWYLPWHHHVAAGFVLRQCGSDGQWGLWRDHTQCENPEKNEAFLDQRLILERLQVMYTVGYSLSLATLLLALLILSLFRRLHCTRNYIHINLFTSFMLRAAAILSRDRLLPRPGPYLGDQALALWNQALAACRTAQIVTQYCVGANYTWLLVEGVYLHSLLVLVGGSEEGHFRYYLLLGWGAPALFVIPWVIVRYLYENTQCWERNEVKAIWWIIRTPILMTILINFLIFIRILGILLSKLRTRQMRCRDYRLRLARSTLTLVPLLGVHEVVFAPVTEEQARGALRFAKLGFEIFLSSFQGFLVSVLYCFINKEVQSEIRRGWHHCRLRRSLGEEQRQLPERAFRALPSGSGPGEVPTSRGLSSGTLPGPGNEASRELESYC

human glucagon receptor = molecular target: T2, human glucagon receptor (human, UniProt P47871 26-477); assay: SPA, displacement of [125I]-Gcg from hGcgR membranes, 0.1% bacitracin
T2 construct: whole, on cells; Assayed as crude membranes of stably transfected HEK293 cells; also called hGcgR; GcgR
T2 sequence (P47871 26-477): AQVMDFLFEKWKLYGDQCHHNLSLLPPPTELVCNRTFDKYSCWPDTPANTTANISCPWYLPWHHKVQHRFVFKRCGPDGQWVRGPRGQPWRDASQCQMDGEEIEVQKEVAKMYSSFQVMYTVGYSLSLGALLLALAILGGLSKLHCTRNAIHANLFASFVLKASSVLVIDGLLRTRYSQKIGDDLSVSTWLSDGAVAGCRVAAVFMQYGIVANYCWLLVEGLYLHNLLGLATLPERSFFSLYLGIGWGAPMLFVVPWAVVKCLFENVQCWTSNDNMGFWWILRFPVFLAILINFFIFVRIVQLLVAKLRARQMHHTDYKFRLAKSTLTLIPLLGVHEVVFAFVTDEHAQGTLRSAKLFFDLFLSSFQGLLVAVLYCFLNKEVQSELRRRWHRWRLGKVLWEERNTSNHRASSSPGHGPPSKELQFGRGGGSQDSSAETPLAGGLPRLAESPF
Procedure: The binding buffer contains 25 mM 4-(2-hydroxyethyl)-1-piperazineethanesulfonic acid (HEPES), pH 7.4, 2.5 mM CaCl₂), 1 mM MgCl₂, 0.1% (w/v) bacitracin (Research Products), 0.003% (w/v) Polyoxyethylenesorbitan monolaurate (TWEEN®-20), and Roche Complete™ Protease Inhibitors without EDTA. […] Plates are sealed and mixed on a plate shaker (setting 6) for 1 minute and read with a PerkinElmer Trilux MicroBeta® scintillation counter after 12 hours of incubation/settling time at room temperature.
Data are analyzed using four-parameter (curve maximum, curve minimum, […], Hill slope) nonlinear regression routines (Genedata Screener, version 12.0.4, Genedata AG, Basal, Switzerland). […] Values for Kᵢ are reported as the geometric mean, with error expressed as the standard error of the mean (SEM) and n is equal to the number of independent replicates (determined in assays performed on different days).

human GLP-1 receptor = molecular target: T3, human GLP-1 receptor (human, UniProt P43220 24-463); assay: SPA, displacement of [125I]-GLP-1 from hGLP-1R membranes, 0.1% bacitracin
T3 construct: whole, on cells; Assayed as crude membranes of stably transfected HEK293 cells; also called hGLP1R; hGLP-1R
In short: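 Binding buffer: 25 mM HEPES pH 7.4, 2.5 mM CaCl₂, 1 mM MgCl₂, 0.1% bacitracin, 0.003% Tween-20, protease inhibitors without EDTA. Four-parameter nonlinear regression; Kᵢ given as geometric mean ± SEM, n = independent replicates run on different days.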

Binder	Ki [1]	Ki (human glucagon receptor)	Ki (human GLP-1 receptor)
YXEGTFISDYSILLDKKAQXDFVNWLLAQGPSSGAPPPS (D-Ala2; K17((2-[2-(2-Amino-ethoxy)-ethoxy]-acetyl)2-(γ-Glu)-CO-(CH2)18-CO2H); Aib20; C-terminal amide) [Example 1]	0.0667 nM	228 nM	57.8 nM
YXEGTFISDYSILLDKKAQXDFVEWLLAQGPSSGAPPPS (D-Ala2; K17((2-[2-(2-Amino-ethoxy)-ethoxy]-acetyl)2-(γ-Glu)-CO-(CH2)16-CO2H); Aib20; C-terminal amide) [Example 16]	0.0438 nM	549 nM	99.2 nM
YXEGTFISDYSILLDKKAQXDFVNWLLEQGPSSGAPPPS (D-Ala2; K17((2-[2-(2-Amino-ethoxy)-ethoxy]-acetyl)2-(γ-Glu)-CO-(CH2)16-CO2H); Aib20; C-terminal amide) [Example 17]	0.0571 nM	274 nM	106 nM
YXEGTFISDYSILLDKKAQXDFVNWLLAGGPSSGAPPPS (D-Ala2; K17((2-[2-(2-Amino-ethoxy)-ethoxy]-acetyl)2-(γ-Glu)-CO-(CH2)16-CO2H); Aib20; C-terminal amide) [Example 19]	0.0469 nM	335 nM	15.2 nM
YXEGTFISDYSILLDKKAQXEFVNWLLAQGPSSGAPPPS (D-Ala2; K17((2-[2-(2-Amino-ethoxy)-ethoxy]-acetyl)2-(γ-Glu)-CO-(CH2)16-CO2H); Aib20; C-terminal amide) [Example 20]	0.0477 nM	216 nM	79.8 nM
YXEGTFISDYSILLDKKAQXEFVQWLLAGGPSSGAPPPS (D-Ala2; K17((2-[2-(2-Amino-ethoxy)-ethoxy]-acetyl)2-(γ-Glu)-CO-(CH2)16-CO2H); Aib20; C-terminal amide) [Example 27]	0.0354 nM	401 nM	23.2 nM
YXEGTFISDYSILLDKKAQXEFVNWLLEGGPSSGAPPPS (D-Ala2; K17((2-[2-(2-Amino-ethoxy)-ethoxy]-acetyl)2-(γ-Glu)-CO-(CH2)16-CO2H); Aib20; C-terminal amide) [Example 28]	0.0732 nM	86.8 nM	6.46 nM
YXEGTFISDYSILLDKKAQXEFVEWLLAGGPSSGAPPPS (D-Ala2; K17((2-[2-(2-Amino-ethoxy)-ethoxy]-acetyl)2-(γ-Glu)-CO-(CH2)16-CO2H); Aib20; C-terminal amide) [Example 29]	0.0569 nM	133 nM	22.7 nM
YXEGTFISDYSILLDKKAQXDFVNWLLAQGPSSGAPPPS (D-Ala2; K17((2-[2-(2-Amino-ethoxy)-ethoxy]-acetyl)2-(γ-Glu)-CO-(CH2)16-CO2H); Aib20; C-terminal amide) [Example 2]	0.0373 nM	379 nM	77.9 nM
Y[Aib]EGTFISDYSI[αMeL]LDKK([AEEA-AEEA-γGlu-C20 diacid])HQ[Aib]DFVE[4Pal]LLEAGPSSGAPPPS-NH2 (N-terminus assumed; SMILES CC[C@H](C)[C@H](NC(=O)[C@H](Cc1ccccc1)NC(=O)[C@@H](NC(=O)CNC(=O)[C@H](CCC(=O)O)NC(=O)C(C)(C)NC(=O)[C@@H](N)Cc1ccc(O)cc1)[C@@H](C)O)C(=O)N[C@@H](CO)C(=O)N[C@@H](CC(=O)O)C(=O)N[C@@H](Cc1ccc(O)cc1)C(=O)N[C@@H](CO)C(=O)N[C@H](C(=O)N[C@@](C)(CC(C)C)C(=O)N[C@@H](CC(C)C)C(=O)N[C@@H](CC(=O)O)C(=O)N[C@@H](CCCCN)C(=O)N[C@@H](CCCCNC(=O)COCCOCCNC(=O)COCCOCCNC(=O)CC[C@H](NC(=O)CCCCCCCCCCCCCCCCCCC(=O)O)C(=O)O)C(=O)N[C@@H](Cc1c[nH]cn1)C(=O)N[C@@H](CCC(N)=O)C(=O)NC(C)(C)C(=O)N[C@@H](CC(=O)O)C(=O)N[C@@H](Cc1ccccc1)C(=O)N[C@H](C(=O)N[C@@H](CCC(=O)O)C(=O)N[C@@H](Cc1ccncc1)C(=O)N[C@@H](CC(C)C)C(=O)N[C@@H](CC(C)C)C(=O)N[C@@H](CCC(=O)O)C(=O)N[C@@H](C)C(=O)NCC(=O)N1CCC[C@H]1C(=O)N[C@@H](CO)C(=O)N[C@@H](CO)C(=O)NCC(=O)N[C@@H](C)C(=O)N1CCC[C@H]1C(=O)N1CCC[C@H]1C(=O)N1CCC[C@H]1C(=O)N[C@@H](CO)C(N)=O)C(C)C)[C@@H](C)CC) [Example 3]	0.0525 nM	338 nM	381 nM
Y[Aib]EGTFISDYSI[αMeL]LDKK([AEEA-AEEA-γGlu-C20 diacid])HQ[Aib]DFVE[4Pal]LLEQGPSSGAPPPS-NH2 (N-terminus assumed; SMILES CC[C@H](C)[C@H](NC(=O)[C@H](Cc1ccccc1)NC(=O)[C@@H](NC(=O)CNC(=O)[C@H](CCC(=O)O)NC(=O)C(C)(C)NC(=O)[C@@H](N)Cc1ccc(O)cc1)[C@@H](C)O)C(=O)N[C@@H](CO)C(=O)N[C@@H](CC(=O)O)C(=O)N[C@@H](Cc1ccc(O)cc1)C(=O)N[C@@H](CO)C(=O)N[C@H](C(=O)N[C@@](C)(CC(C)C)C(=O)N[C@@H](CC(C)C)C(=O)N[C@@H](CC(=O)O)C(=O)N[C@@H](CCCCN)C(=O)N[C@@H](CCCCNC(=O)COCCOCCNC(=O)COCCOCCNC(=O)CC[C@H](NC(=O)CCCCCCCCCCCCCCCCCCC(=O)O)C(=O)O)C(=O)N[C@@H](Cc1c[nH]cn1)C(=O)N[C@@H](CCC(N)=O)C(=O)NC(C)(C)C(=O)N[C@@H](CC(=O)O)C(=O)N[C@@H](Cc1ccccc1)C(=O)N[C@H](C(=O)N[C@@H](CCC(=O)O)C(=O)N[C@@H](Cc1ccncc1)C(=O)N[C@@H](CC(C)C)C(=O)N[C@@H](CC(C)C)C(=O)N[C@@H](CCC(=O)O)C(=O)N[C@@H](CCC(N)=O)C(=O)NCC(=O)N1CCC[C@H]1C(=O)N[C@@H](CO)C(=O)N[C@@H](CO)C(=O)NCC(=O)N[C@@H](C)C(=O)N1CCC[C@H]1C(=O)N1CCC[C@H]1C(=O)N1CCC[C@H]1C(=O)N[C@@H](CO)C(N)=O)C(C)C)[C@@H](C)CC) [Example 46]	0.0319 nM	435 nM	744 nM
Y[Aib]EGTFISDYSI[αMeL]LDKK([AEEA-AEEA-γGlu-C20 diacid])HQ[Aib]DFVE[4Pal]LLEGGPSSGAPPPS-NH2 (N-terminus assumed; SMILES CC[C@H](C)[C@H](NC(=O)[C@H](Cc1ccccc1)NC(=O)[C@@H](NC(=O)CNC(=O)[C@H](CCC(=O)O)NC(=O)C(C)(C)NC(=O)[C@@H](N)Cc1ccc(O)cc1)[C@@H](C)O)C(=O)N[C@@H](CO)C(=O)N[C@@H](CC(=O)O)C(=O)N[C@@H](Cc1ccc(O)cc1)C(=O)N[C@@H](CO)C(=O)N[C@H](C(=O)N[C@@](C)(CC(C)C)C(=O)N[C@@H](CC(C)C)C(=O)N[C@@H](CC(=O)O)C(=O)N[C@@H](CCCCN)C(=O)N[C@@H](CCCCNC(=O)COCCOCCNC(=O)COCCOCCNC(=O)CC[C@H](NC(=O)CCCCCCCCCCCCCCCCCCC(=O)O)C(=O)O)C(=O)N[C@@H](Cc1c[nH]cn1)C(=O)N[C@@H](CCC(N)=O)C(=O)NC(C)(C)C(=O)N[C@@H](CC(=O)O)C(=O)N[C@@H](Cc1ccccc1)C(=O)N[C@H](C(=O)N[C@@H](CCC(=O)O)C(=O)N[C@@H](Cc1ccncc1)C(=O)N[C@@H](CC(C)C)C(=O)N[C@@H](CC(C)C)C(=O)N[C@@H](CCC(=O)O)C(=O)NCC(=O)NCC(=O)N1CCC[C@H]1C(=O)N[C@@H](CO)C(=O)N[C@@H](CO)C(=O)NCC(=O)N[C@@H](C)C(=O)N1CCC[C@H]1C(=O)N1CCC[C@H]1C(=O)N1CCC[C@H]1C(=O)N[C@@H](CO)C(N)=O)C(C)C)[C@@H](C)CC) [Example 47]	0.0452 nM	175 nM	320 nM
Y[Aib]EGTFISDYSI[αMeL]LD[Orn]IHQ[Aib]EFVE[4Pal]K([AEEA-AEEA-γGlu-C20 diacid])LEAGPSSGAPPPS-NH2 (N-terminus assumed; SMILES CC[C@H](C)[C@H](NC(=O)[C@H](CCCN)NC(=O)[C@H](CC(=O)O)NC(=O)[C@H](CC(C)C)NC(=O)[C@](C)(CC(C)C)NC(=O)[C@@H](NC(=O)[C@H](CO)NC(=O)[C@H](Cc1ccc(O)cc1)NC(=O)[C@H](CC(=O)O)NC(=O)[C@H](CO)NC(=O)[C@@H](NC(=O)[C@H](Cc1ccccc1)NC(=O)[C@@H](NC(=O)CNC(=O)[C@H](CCC(=O)O)NC(=O)C(C)(C)NC(=O)[C@@H](N)Cc1ccc(O)cc1)[C@@H](C)O)[C@@H](C)CC)[C@@H](C)CC)C(=O)N[C@@H](Cc1c[nH]cn1)C(=O)N[C@@H](CCC(N)=O)C(=O)NC(C)(C)C(=O)N[C@@H](CCC(=O)O)C(=O)N[C@@H](Cc1ccccc1)C(=O)N[C@H](C(=O)N[C@@H](CCC(=O)O)C(=O)N[C@@H](Cc1ccncc1)C(=O)N[C@@H](CCCCNC(=O)COCCOCCNC(=O)COCCOCCNC(=O)CC[C@H](NC(=O)CCCCCCCCCCCCCCCCCCC(=O)O)C(=O)O)C(=O)N[C@@H](CC(C)C)C(=O)N[C@@H](CCC(=O)O)C(=O)N[C@@H](C)C(=O)NCC(=O)N1CCC[C@H]1C(=O)N[C@@H](CO)C(=O)N[C@@H](CO)C(=O)NCC(=O)N[C@@H](C)C(=O)N1CCC[C@H]1C(=O)N1CCC[C@H]1C(=O)N1CCC[C@H]1C(=O)N[C@@H](CO)C(N)=O)C(C)C) [Example 122]	0.0311 nM	957 nM	–
